Reference: the DeepSol protein solubility set

assay: soluble on expression in E. coli; label from the status in PepcDB or PDB records

Sequence	soluble on expression in E. coli
MGKPTGFMEIKREKPAERDPLTRLKDWKEYSAPFSEEASKRQGARCMDCGTPFCQIGADINGFTSGCPIYNLIPEWNDLVYRGRWKEALERLLKTNNFPEFTGRVCPAPCEGSCTLAISDPAVSIKNIERTIIDKGFENGWIQPRIPKKRTGKKVAIVGSGPAGLASADQLNQAGHSVTVFERADRAGGLLTYGIPNMKLEKGIVERRIKLLTQEGIDFVTNTEIGVDITADELKEQFDAVILCTGAQKQRDLLIEGRDSKGVHYAMDYLTLATKSYLDSNFKDKQFIDAKGKDVIVIGGGDTGADCVATALRQKAKSVHQFGKHPKLPPARTNDNMWPEQPHVFTLEYAYEEREAKFGRDPREYSIQTTKMVADKNGKLKELHTIQMEKVKNEHGKYEFRELPGTEKVWPAQLVFIAIGFEGTEQPLLKQFGVNSVNNKISAAYGDYQTNIDGVFAAGDARRGQSLIVWAINEGREVAREVDRYLMGSSVLPLEHHHHHH	soluble
MSHLVYVSRVVAAPIERVWPHLRDFNGLSAWHPGVADSRLEEGGRDDAPGTVRFLSLNPSGYVRERLLMLDDAGRSLRYAIIETDLPMRDYVAGVDLCPVTEGGGTFAQWWADFDVVAGANRDEVARLVGEGVFAAGLQALDQYLRGRQALEHHHHHH	not soluble
AHKLFIGGLPNYLNDDQVKELLTSFGPLKAFNLVKDSATGLSKGYAFCEYVDINVTDQAIAGLNGMQLGDKKLLVQRASVGAKNA	soluble
MGSDKIHHHHHHMDIISSFGFGRKHIAPILSKLMMLYPKLQIHFDTIDNTKDLIQHSIDLDIRIGNEIAPNMIAKKLASNFRILCASPSYLLKHGVPDSIEDLQTHDCLTISERDQSSVLWKFRHASEDVSVHIKPRFVSNNGEIIHQLAIEGHGIIFRSIWDVADELITGQLQHILPEYWQDADVWAVYPSRLKSSSKLQTCILFIQNELLNRLQHVQNLSRGQLISPAVKREPPPEKVFL	not soluble
RCPELYRGVVMLDSPVLGLADKLFIRAAKRLGFIDRITPAGRTLGRRDAFADLDAARTYFASKTLFRRFDPDCLTAYLQHGLQQDGEQLRLRFDPATEISIYRSIPHTSPLPSRQLKVPLAMVRGKHSRVIMPHHGYLARRMRDGEYLSMPGGHMFPLERPDETAQLLKSLFARWDA	not soluble
MGSDKIHHHHHHMYTMFYTSKTALSANQSKLDIISNNIANSDSTGYKKINMEYSDLVDEVLNRPSYPTNGNDISTGTGAKATAPMRNYEQGALAPTDSKSNLAIDGEGFFRVIRKDGTYAYTRNGGFNVDALGKIVDDNGNILDVQFDAGYNYNNTNIDSTNLTVSRNGELFVDNKKIGKINLYQPIGTQNFISEGDSLFVATDAAQIKQVEKVDIVQGYRERSNVSLQEEFVDLIATQRAFQMNSKGIKTADEMWQIANNLRAK	not soluble
MGSDKIHHHHHHMTNIPFIYQYEEKENERAAAGYGTFGYLITRIEETLYDQYGVFYELYASDDPNTEYWELLVEDVRSGSLEPEHVAYIFEKLEKKTFAYDEDEKEPDYTVHKSIRNSVYAYPEKGVAFARIPYFQDGSIMSFDCLFAVNDEKMRAFLEGVRPRLWEKSKRKVTVFTDGDGGTSREQEAIVREVQRSQVIMNPLLKKEIYRSIDQFFHSDKSFYQTYDIPYKRGILLYGPPGNGKTTLVKSIAGSIDAPVAYWQITEFTSSETIEEVFQAARRLAPAVLVIEDIDSMPEDVRSFFLNTLDGATSKEGLFLIGTTNYPEEIDPGLMNRAGRFDRAYEIGLPDEELRLEYMKMRGFGIFLSEGEIKNAAKLTEGFSFAQLGELYVSSALQWHQEGNHHIETMVKDMTGEQRKSQRGSWMERNKVGFH	not soluble
SLFIDAHNHLDFFEEQEKLNKALDIIKNDNIITLGCSMDTKSYKFTKSLALKNKNIIPCFGIHPSRAHENFKNLECFDEYIRESKIIGEIGLDYVWVKEKEKYPHMKRVFTYFLEEAKKYNKITNIHTKGAESEIYNYIKKYELKTPIIHWYSGDKDTLKKLLDYGCYFTISVDIGYSKLSKEIVQLLPIDKILTETDGPTSLEWVNGDYGYPNVIKNVVKEISKIKNIQEEEVKGVIENNFKTLIRKEGITL	not soluble
MGSDKIHHHHHHMARLSEGWSKEPFFLFFHPPKSPTKKENIKMNYRETLQAVDTEKALSVIGINSTLQGAYVKFNCPECEQQALIKAYGEKKNLWYCPKCKKSGHIISLTMTKKNIQWEEAKDLLLKARNGVKKITEEFNLKYDLQYNDFIKDKGLSEDICKFLEIGTPKGKTMLSGCVAFLVRDEVGMRVAYFGIKMKDEKHVFHKSFNPEQYLYGFQNLDFAYDVYFTTDLFECIKHIENGFQCVCNFGLPYISNEQMELLEKAERVTFSIRDELVKPFALQLTQRQKFYRFIK	not soluble
MRILNVSLLVLASSLVAFVECGRDFYKILGVAKNANANQIKKAYRKLAKELHPDRNQDDEMANEKFQDLSSAYEVLSDKEKRAMYDRHGEEGVAKMGGGGGGGHDPFSSFFGDFFGGGGGHGGEEGTPKGADVTIDLFVTLEEVYNGHFVEIKRKKAVYKQTSGTRQCNCRHEMRTEQMGQGRFQMFQVKVCDECPNVKLVQENKVLEVEVEVGADNGHQQIFHGEGEPHIEGDPGDLKFKIRIQKHPR	not soluble
MSLDIRGMTVEEAEPVVKKFIDDLMMNGISKGYIIHGKGTGKLASGVWEILRKDKRVVSFRFGTPSEGGTGVTVVEVKEGHHHHHH	not soluble
GAMAVKVARPCRKIEKWTYLELKGSKANEGVPQAMTAFAEFLNRTGIPINPRFSPGMSMSVPGSEKEFFAKVKELMSSHQFVVVLLPRKDVAIYNMVKRAADITFGVHTVCCVAEKFLSTKGQLGYFANVGLKVNLKFGGTNHNI	soluble
AHHHHHHGSYEVTKFGGEGKRLEDYREIIGDEALEAIKAKAENLKDKSFVHVNSTSFGGGVAEILHNLVPLMRDVGIDARWFVIEGTNEFFNVTKSFHNALQGNKELRLTEEMKKLYLEINKKNAEDIDLTQFDYVLIHDPQPAPLIEFYEKRQPWIWRCHIDLSDPNLEFWKFLRQFVEKYDRYIFHMEEYVQEDLNQEKVVIMPPSIDPLSEKNMELSESEILKTLERFDVDPERPIITQVARFDPWKGVFDVIDVYRKVKEKIPEVQLLLVGVMAHDDPEGWIYFEKTLRKIGEDYDIKVLTNLTGVHAREVNAFQRASDVILQMSIREGFGLTVTEAMWKEKPVVGRAVGGIKLQIVDGKTGFLVKDVNDAIEKTLYLLEHKDVAQEMGKNAKERIKENFIITKHLERYLDLLNSF	soluble
MQEAIITSTVDLTSGGCNACGLVEDTVYTLAMNGVDIPLDGLTVAHLVSAIVARNGFKQELQMDMLDDEYILYRKEDTTVTFKEAYNHLSYDNGSEKIQSKNKLEDLPKLFEQVNQILTTVFGIGTVNFIIE	not soluble
SSFQGPLDATVVVNLQSPTLEEKNEFPEDLRTELMQTLGSYGTIVLVRINQGQMLVTFADSHSALSVLDVDGMKVKGRAVKI	soluble
MSDKLFSIVTISFNQAQFLREAVESVLAQKGGDIEYIVVDPGSTDGSREILAEYRSAIDHLILEADHGPGDGLNKGFARANGRYGYFLNSDDFLLPGAIDIMRTLWQRHKNTDVLLCGAWMVDENRRPQRELRPSPVTLEKLLDGEAKIVQQGMSFRMDLFRKVGGFNVGNRTCWDYELLCDFLAAGAAVTQSEARLAAFRIHSASISGGIGGELATKRYLADLDSVYERLTGQKKKPEQRRRAVRLSKRLGSPSHVLLRMRELLAPWTLELRWQADHERKSRRLEHHHHHH	not soluble
ANGLITKIWGTAGWTFNHAVTFGYPLNPTSDDKRRYKNYFISLGDVLPCRLCRESYKKFITTGKTALTNEVLRNRHTLTKWFYDVHNAVNNKLEVDYGLSYEDVVNKYESFRAK	soluble
MGSDKIHHHHHHQTIDETAIIARAQAIATRINEFLATRERNLLAKILALGGVQQAEIFEIQVKARLHPADVERVLAVLNHPAITVTKTSERTQYDTYFIFANGERIRIREDHRTDPGARPQPKYTLTLMAEARRFDHPKAMMLSRARYTAPADHTVRFYREYFQPDRIEELEKQRRRWRILYRDHDFAINLDTLIGQADRGPFLEIKSRTWSRRDAERRAELISELLELIGISDDALVLQEYVELVA	not soluble
